Here are results for two molecules from patent publication US20230054956A1 (VANDERBILT UNIVERSITY, published 2023).

Experiment [1] concerns the target GII.4 Houston 2002 (ABY27560.1) VLPs (human norovirus GII.4 Houston 2002, UniProt P54635 1-539). In words: ELISA, VLP. In general terms: In an ELISA, binding on a coated surface is turned into a signal by an enzyme label.
The target in experiment [2] is GII.4 Sydney 2012 virus-like particles (VLPs), based on strain AFV08795.1 (human norovirus GII.4 Sydney 2012, UniProt P54635 1-538, The particle is a multimeric assembly of VP1 with a little VP2 inside; one VP1 chain is given.). The experiment can be described thus: indirect ELISA, VLP coated.

B1: NORO-115 (antibody, V domains shown)
VH: QVQLVESGGGLVKPGGSLRLSCTASGITISGYYMSWIRQAPGKGLEWIVYINTSGRTIYYADSVKGRFSVSRDNAKESLYLQMDSLTVDDTGIYYCARDRLPASGSHWFHPWGQGTLVTVSS
VL: DIVMTQSPDSLAVSLGGRATINCKSSQSVLYTSDNKNYLAWYQQQPGQPPKLLISWASTRESGVPDRFSGSGSGTDFTLTISNLQAEDVAVYYCQQYYNSPLAFGGGTKVEIK
Take B1: in experiment [1], the “fold higher binding EC50 than to GII.4 Sydney 2012 VLPs” value is greater than 10 fold. This molecule gave an EC50 in experiment [2] of 0.1 mg/L.

B2: NORO-329A (antibody, V domains shown)
VH: QVQLVESGGGLVKPGGSLRLSCAASGFTFSDYYMSWIRQAPGKGLEWISYISSSFGSTDYAGSMKGRFTISRDNAKNSLYLQMNSLRAEDTAVYYCARYNYYGSGSFVFDYWGQGTLVTVSS
VL: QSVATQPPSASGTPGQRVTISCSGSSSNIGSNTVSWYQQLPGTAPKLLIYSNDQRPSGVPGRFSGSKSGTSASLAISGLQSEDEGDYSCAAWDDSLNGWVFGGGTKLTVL
For the molecule B2, the “fold higher binding EC50 than to GII.4 Sydney 2012 VLPs” value in experiment [1] was greater than 10 fold. The same molecule showed an EC50 in experiment [2] of 0.2 mg/L.

A word on the EC50: it is the concentration needed to bring the measured effect to its halfway point.
